Here are results for three proteins from publication doi:10.1101/2020.08.13.249979 (bioRxiv, 2020).

Several values for one entry are separate records, joined by “and”; a condition that tells them apart may be missing. Equal entries are not always repeated.

The series “negative stain EM” concerns the molecule itself. The series can be described thus: negative stain EM.
The series “cryo-EM structure” concerns the molecule itself. Description: cryo-EM structure.
The series “cross-linking” concerns the molecule itself. Description: cross-linking.

B1: Vipp1Δα6_(1-219) (domain or fragment)
chain: MGLFDRIKRVVSSNLNDLVNKAEDPEKMLEQAILEMQEDLVQLRQGVAQAIAAQKRSEKQYNDAQNEINKWQRNAQLALQKGDENLARQALERKKTYTDTSAALKASLDTQSTQVETLKRNLIQLESKISEAKTKKEMLKARITTAKAQEQLQGMVRGMNTSSAMSAFERMEEKVLMQESRAQALGELAGADLETQFAQLEGGSDVDDELAALKAQMLP
For B1, the binding result in the series “negative stain EM” is recorded as “binds”.

B2: Vipp1/IM30 from Nostoc punctiforme, full-length (amino acids 1-258) (natural protein)
chain: MGLFDRIKRVVSSNLNDLVNKAEDPEKMLEQAILEMQEDLVQLRQGVAQAIAAQKRSEKQYNDAQNEINKWQRNAQLALQKGDENLARQALERKKTYTDTSAALKASLDTQSTQVETLKRNLIQLESKISEAKTKKEMLKARITTAKAQEQLQGMVRGMNTSSAMSAFERMEEKVLMQESRAQALGELAGADLETQFAQLEGGSDVDDELAALKAQMLPPATPVTQAQLPPQQETTPAKSNEVVDAELDSLRKQLDQL
As to B2, the “stoichiometry N” value in “cryo-EM structure” was 84 subunits and 55 subunits to 119 subunits (2×).

B3: Vipp1_(L86C/L193C) (natural protein)
chain: MGLFDRIKRVVSSNLNDLVNKAEDPEKMLEQAILEMQEDLVQLRQGVAQAIAAQKRSEKQYNDAQNEINKWQRNAQLALQKGDENCARQALERKKTYTDTSAALKASLDTQSTQVETLKRNLIQLESKISEAKTKKEMLKARITTAKAQEQLQGMVRGMNTSSAMSAFERMEEKVLMQESRAQALGELAGADCETQFAQLEGGSDVDDELAALKAQMLPPATPVTQAQLPPQQETTPAKSNEVVDAELDSLRKQLDQL
Regarding B3, the binding result in the series “cross-linking” is on record as “binds”.

Usually stoichiometry N stands for the number of molecules, sites or subunits per partner or assembly.
